Test results from publication PMC5727386.

What was measured:
[1] = target: Bcr-Abl DH domain (residues 487–702) (UniProt P11274); test: NMR titration; GTPase titrated to 50 μM 15N-labeled DH domain; 50 mM HEPES pH 7, 50 mM NaCl, 1 mM DTT, 1 mM imidazole, 2 mM EDTA; [15N,1H]-TROSY; about 10 peaks fitted to a 1:1 binding model, mean Kd
[2] = target: Tyrosine phosphatase Sts1 (UniProt Q8BGG7); test: co-immunoprecipitation (anti-Bcr-Abl/Abl IP, Sts1 immunoblot, quantified); details: BaF3 cells stably transduced with the Bcr-Abl variants; parent: est. 1.0; read off a plot
Sequence of Tyrosine phosphatase Sts1 (Q8BGG7 whole entry): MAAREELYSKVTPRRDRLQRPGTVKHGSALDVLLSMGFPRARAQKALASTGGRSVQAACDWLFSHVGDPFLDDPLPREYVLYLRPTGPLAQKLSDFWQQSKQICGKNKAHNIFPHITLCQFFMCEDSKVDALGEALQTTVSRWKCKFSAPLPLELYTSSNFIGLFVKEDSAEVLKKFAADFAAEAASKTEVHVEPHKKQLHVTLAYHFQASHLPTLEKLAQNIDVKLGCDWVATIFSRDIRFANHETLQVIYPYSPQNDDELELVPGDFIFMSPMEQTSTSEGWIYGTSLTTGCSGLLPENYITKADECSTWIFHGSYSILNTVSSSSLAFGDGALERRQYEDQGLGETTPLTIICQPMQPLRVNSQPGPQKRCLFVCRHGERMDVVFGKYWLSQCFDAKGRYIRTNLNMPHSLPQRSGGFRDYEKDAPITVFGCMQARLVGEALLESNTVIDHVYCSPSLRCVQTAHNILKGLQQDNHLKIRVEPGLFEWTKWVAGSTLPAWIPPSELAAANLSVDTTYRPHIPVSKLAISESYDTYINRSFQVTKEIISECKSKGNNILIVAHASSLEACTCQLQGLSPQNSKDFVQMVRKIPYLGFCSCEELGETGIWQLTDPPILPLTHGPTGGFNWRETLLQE

Sequence of Bcr-Abl DH domain (residues 487–702) (P11274 487-702): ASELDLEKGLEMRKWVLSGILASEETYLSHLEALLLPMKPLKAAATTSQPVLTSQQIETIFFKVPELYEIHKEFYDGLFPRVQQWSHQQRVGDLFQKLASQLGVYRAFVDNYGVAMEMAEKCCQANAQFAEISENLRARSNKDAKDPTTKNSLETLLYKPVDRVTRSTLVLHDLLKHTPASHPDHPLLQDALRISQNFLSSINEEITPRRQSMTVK
Sequence of Bcr-Abl p210 (from UniProt P11274) R723A; K724A; F1100E (P11274 whole entry, stated change not applied): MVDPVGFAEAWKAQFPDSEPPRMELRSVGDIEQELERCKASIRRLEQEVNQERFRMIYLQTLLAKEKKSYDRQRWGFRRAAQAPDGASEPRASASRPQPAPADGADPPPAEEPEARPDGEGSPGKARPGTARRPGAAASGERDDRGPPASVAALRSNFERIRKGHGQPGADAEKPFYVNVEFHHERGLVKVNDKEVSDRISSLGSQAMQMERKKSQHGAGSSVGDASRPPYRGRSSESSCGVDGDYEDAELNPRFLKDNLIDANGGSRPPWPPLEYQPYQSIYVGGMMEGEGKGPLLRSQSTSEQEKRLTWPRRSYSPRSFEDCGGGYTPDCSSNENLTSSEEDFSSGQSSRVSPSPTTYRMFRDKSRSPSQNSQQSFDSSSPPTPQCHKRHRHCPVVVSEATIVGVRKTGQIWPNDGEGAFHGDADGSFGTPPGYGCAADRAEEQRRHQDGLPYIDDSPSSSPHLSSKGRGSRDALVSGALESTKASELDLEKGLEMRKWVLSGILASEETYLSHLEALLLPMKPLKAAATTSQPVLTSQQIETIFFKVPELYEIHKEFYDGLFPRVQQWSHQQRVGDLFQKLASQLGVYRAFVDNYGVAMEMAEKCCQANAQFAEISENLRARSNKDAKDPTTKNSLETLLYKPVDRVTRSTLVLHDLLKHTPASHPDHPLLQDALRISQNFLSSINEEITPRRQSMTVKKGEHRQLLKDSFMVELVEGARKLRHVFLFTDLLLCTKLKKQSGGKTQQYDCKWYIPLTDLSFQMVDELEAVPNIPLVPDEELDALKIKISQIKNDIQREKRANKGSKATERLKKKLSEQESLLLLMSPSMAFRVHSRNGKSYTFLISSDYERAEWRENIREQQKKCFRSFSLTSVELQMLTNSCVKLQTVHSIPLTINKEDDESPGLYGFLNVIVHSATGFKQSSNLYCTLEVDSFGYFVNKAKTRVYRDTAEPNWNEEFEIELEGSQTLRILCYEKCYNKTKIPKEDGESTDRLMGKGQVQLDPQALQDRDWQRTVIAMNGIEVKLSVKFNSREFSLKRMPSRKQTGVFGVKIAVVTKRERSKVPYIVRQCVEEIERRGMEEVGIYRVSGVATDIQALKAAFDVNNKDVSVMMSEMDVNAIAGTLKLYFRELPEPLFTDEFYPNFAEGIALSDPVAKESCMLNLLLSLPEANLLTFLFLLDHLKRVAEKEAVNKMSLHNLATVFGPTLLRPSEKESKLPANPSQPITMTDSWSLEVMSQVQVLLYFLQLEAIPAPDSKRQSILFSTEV
Sequence of Bcr-Abl p210 (from UniProt P11274) F1100E (P11274 whole entry, stated change not applied): as above
Sequence of Bcr-Abl p210 (from UniProt P11274) R726A; F1100E (P11274 whole entry, stated change not applied): as above

Row | Substance | Kd [1] | ratio to parent [2]
1 | Cdc42 (from UniProt P60953 1-191) (enzyme) | 1900 µM | 
2 | Bcr-Abl p210 (from UniProt P11274) R723A; K724A; F1100E |  | 0.24
3 | Bcr-Abl p210 (from UniProt P11274) F1100E |  | 0.55
4 | RhoA (from UniProt P61586 1-193) (enzyme) | 600 µM | 
5 | Bcr-Abl p210 (from UniProt P11274) R726A; F1100E |  | 0.5
